Laboratory results reported in the supplement of paper PMC10126150.
± gives the standard deviation of the averaged measurements.

Tested on: ATP
Experiment: switch fluorescence ratio, 500 uM ATP over buffer (Cy3 cluster intensity, sum of 5 cycles each) (fold (ratio)); higher = stronger signal-on switching upon ATP binding; sequences stand for … in TCGTCGGCAGCGTCAGATGTGTATAAGAGACAGTTTTTTTTTTTTTTTTTTTTTTTTT…TC
Settings: aptamer strand: ATP DNA aptamer (quencher-CACCTGGGGGAGTATTGCGGAGGAAGG + anchor), 100 nM annealed; ATP concentration: 500 uM
How it was run: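 Between each of five buffer/ATP cycles, the flow-cell was stripped with NaOH and re-annealed. Each cycle imaged Cy3-labelled switching-strand clusters, annealed to 100 nM quencher-labelled ATP aptamer on a modified Illumina MiSeq flow-cell, first in selection buffer and then after 15 min with 500 uM ATP at 22 °C. The fluorescence ratio is summed target-cycle over summed buffer-cycle Cy3 intensity per cluster, averaged per switch-domain sequence, with clusters outside 100-1000 RFU excluded.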
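Note: ATP exposure 15 min at 22 °C before imaging.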

Sequence	switch fluorescence ratio
TGAGATTCAG	0.985 ± 0.02
TATATTTTTA	0.9819 ± 0.0079
CCTATAGAGT	0.964 ± 0.02
GGGGGAAGCC	0.98 ± 0.024
GCACGCCTGG	1.0842 ± 0.00097
TTTCCCAGGT	3.64 ± 2.7
AGGGACAGGG	1.02 ± 0.05
CGGGTTGTCA	0.9969 ± 0.0072
CGGACCATAT	1.11 ± 0.017
CGGACTAACG	1.08 ± 0.053
AGATTTTTGT	0.972 ± 0.019
GGCTGGTATA	0.987 ± 0.031
GCGTGTATGG	1.03 ± 0.03
GGAAGCGAAC	1.47 ± 0.067
TTGAAGGTCT	1 ± 0.05
ATCGTTAAAC	1.01 ± 0.0099
AACAATGGGG	1.03 ± 0.077
ATTTTGTATT	0.99 ± 0.034
TGGGGGTTTG	0.993 ± 0.021
TTTTGTAAGC	1.04 ± 0.083
CCCAATAGTG	1.35 ± 0.042
TTTCTGTGGG	0.986 ± 0.016
TTGTGTTGGC	1.02 ± 0.038
AGTTTTACAT	0.9608 ± 0.0018
CCGGGGGGAT	1.55 ± 0.66

Sequence	switch fluorescence ratio
TCAATAAAGT	0.961 ± 0.014
CGCAGGGGGT	1.01 ± 0.039
CGTGGGGTTG	1.01 ± 0.054
ATTGGCACGC	1.36 ± 0.42
AAAGGTGGGC	0.98 ± 0.039
TTTATTAACT	1.06 ± 0.072
GTGGTTCTGG	1.01 ± 0.018
TGGAAAGGCG	1.04 ± 0.06
TAGAGGGTAC	1.19 ± 0.24
GCATGTCAGT	0.9762 ± 0.00048
TATGGAATGC	1.35 ± 0.076
TTATCGGTTT	0.958 ± 0.019
AGATTTTCCG	1.01 ± 0.023
TTTTAACTAC	1.18 ± 0.15
ACCTGAATTA	1 ± 0.035
GGGAATCGTC	0.987 ± 0.04
GTCAGATAGG	1.004 ± 0.008
TAAGGGTATG	0.965 ± 0.066
GCTATGGGCG	1.03 ± 0.033
AGAGGGGCGT	0.999 ± 0.033
ATAGGGTCGT	0.998 ± 0.011
AAAGGGGTCA	1 ± 0.034
CTATAAGGGG	0.999 ± 0.026
GGACGGGGAT	1 ± 0.015
ATGAATGCGG	0.99 ± 0.0094

Sequence	switch fluorescence ratio
TCGGTGGGTG	1.012 ± 0.0066
ATTTGGCCGG	1.01 ± 0.04
ATAGGGGGTC	0.988 ± 0.047
CGCTTTACCG	1 ± 0.051
GAGGCTGATA	1.02 ± 0.013
CGTGACCGCC	1.08 ± 0.028
GGGTGCGCGA	1.04 ± 0.041
TTTCGTTCTT	1.02 ± 0.03
GGTTATTAAA	0.998 ± 0.01
TTCGAGTAGT	0.998 ± 0.03
GATGGCTTGG	0.987 ± 0.018
GGACGTGGGG	0.953 ± 0.069
GCGCCGGGGG	1.03 ± 0.018
CGCCGGCACT	0.992 ± 0.027
TGTTTGGGTT	0.978 ± 0.012
TTTTGTGGAT	1.05 ± 0.053
ATGCAGTGTG	1.02 ± 0.019
GTGAGTTTGT	1.01 ± 0.027
TTAAATGGTG	1.05 ± 0.072
TTCGTTATGG	1 ± 0.046
AGGGTCAGCT	1.02 ± 0.014
TGCCTTGGGG	1.07 ± 0.16
CATGCCAGAT	0.994 ± 0.028
GCGGAGACTG	0.962 ± 0.069
CGTGTGGTTT	1.03 ± 0.037

Sequence	switch fluorescence ratio
GAGGGCTTCG	1.02 ± 0.1
CCTTCTTGGG	1.015 ± 0.0033
TCGTAAACTT	1.025 ± 0.005
TGATGCATCG	1 ± 0.034
GGGGTATAGT	0.98 ± 0.021
TCGCATGTCT	1.11 ± 0.098
CAATAGTGTG	0.973 ± 0.017
ATAATGTTAC	1.09 ± 0.029
CGGGCTGTGG	0.992 ± 0.03
CGCCCTCTCC	2.18 ± 0.23
TTCGTAGGGC	1.01 ± 0.055
AGAGGGCTGT	1.01 ± 0.15
GAGGGGGCCG	0.996 ± 0.034
GGGCTGCATT	1.01 ± 0.011
ATGAGATTCG	0.99 ± 0.026
TCGTCAAGTT	1.007 ± 0.01
TAGGGGAACG	0.959 ± 0.0096
AGATTGCATA	0.994 ± 0.015
ACATCGGTTG	0.976 ± 0.028
TAAATATTTT	1.08 ± 0.14
GTGAGGATGG	0.978 ± 0.012
ATTTTGAATG	0.979 ± 0.05
CGGGGCGTGC	1.01 ± 0.029
CTGTGGCTTT	1.016 ± 0.0096
AGTGAGAATC	1.036 ± 0.0046

Sequence	switch fluorescence ratio
CATTTTGCGC	1.04 ± 0.042
CCAGTTTCGG	0.983 ± 0.049
GGTATAAATG	1 ± 0.019
TTTAAATATT	1.02 ± 0.031
CGATAAACGG	1.03 ± 0.022
CAAGGGGGG	0.977 ± 0.043
GAAGGCCCGT	0.991 ± 0.037
AATCAAGAGT	1.028 ± 0.0031
GCTGGGGGGC	0.988 ± 0.033
GTTCAAACGG	0.967 ± 0.018
TGCCACGTAA	1.3 ± 0.065
ACTCATTTC	1.03 ± 0.047
CAAAAGGGGG	0.9818 ± 0.005
GGTTCGAAGG	0.95 ± 0.032
TTAAGTAGGG	1.01 ± 0.029
TTTAGAGATT	1.01 ± 0.068
GTGTGTAATT	1.01 ± 0.059
TGGAGGTTTT	1.07 ± 0.045
CGTAAACTAG	0.97 ± 0.016
CCGGGGGACG	1.06 ± 0.14
TGGCGTCTTA	0.9875 ± 0.0033
TTTGAGCATA	1.06 ± 0.042
GCGGGGCGTA	0.995 ± 0.016
CTATACTGAG	1.05 ± 0.045
GGCTTTAGTA	1.02 ± 0.027

Sequence	switch fluorescence ratio
ACCGTATCTT	1.06 ± 0.053
ATGGAAAGGT	1.009 ± 0.0074
ACAGGGTTCT	0.987 ± 0.025
GGTCTGATTG	1.01 ± 0.065
ACCGCGAGGA	1.54 ± 0.57
AATGTGCCCA	0.9775 ± 0.007
CTTGTCGATT	0.999 ± 0.04
ACACTATCAC	1.21 ± 0.049
GCGCGGGGGT	1.08 ± 0.032
CTATACAGCA	1.06 ± 0.044
AACTCGGTCC	1 ± 0.061
ACTTGGAGCG	1.018 ± 0.0092
GAGTTTAGTC	1.01 ± 0.013
AGACCGTTCG	1.02 ± 0.0066
CTTAACTTGA	1 ± 0.025
TCGGGTGGTA	1.05 ± 0.097
TTTAAGGAAC	1.03 ± 0.026
ACAGTAGGGA	1.049 ± 0.0093
CATAACGCCT	1.09 ± 0.027
AGGTAAATTG	1.01 ± 0.015
TAAGCAGTGG	1.02 ± 0.022
GGTTTTTTGG	0.98 ± 0.021
TGCAGGTGGC	1.13 ± 0.035
AATAGCTATT	0.986 ± 0.023
TAACAATTTT	1.01 ± 0.019

Sequence	switch fluorescence ratio
GGTTTTCTTT	1 ± 0.035
CTGAATGGGT	0.998 ± 0.016
TTACGGGCTT	0.989 ± 0.027
GGCTTAGCAT	1.02 ± 0.037
CATCTGTG	1.03 ± 0.016
TGTGAGCTTT	0.975 ± 0.03
GAAACGTAAT	1.19 ± 0.037
TGATTCCATT	0.9991 ± 0.0052
GTTATGAGTC	1.02 ± 0.03
GGGGGGTAAT	1.01 ± 0.026
TATTGGCGCT	0.984 ± 0.018
CTTATGAAGC	1.14 ± 0.012
GGGCAACTGG	1.11 ± 0.15
CGGGTGCAAA	1.08 ± 0.016
TTTTGCAAGC	1.14 ± 0.13
GGATCATTCG	1.02 ± 0.048
ATTAATAGTG	0.967 ± 0.028
TTGGAGCCCT	1.069 ± 0.0022
TATAAAGCGG	1.03 ± 0.048
ATGAGCTGTG	1.01 ± 0.056
AGCTCGCCAC	1.05 ± 0.046
GATCTCCGGC	1.63 ± 0.063
GTCGGACCCG	0.973 ± 0.019
CGGCCGGTTG	1 ± 0.019
CGGGGTTACC	0.9924 ± 0.0059

Sequence	switch fluorescence ratio
AATAGCGGAA	1 ± 0.015
CAGTAGAGGT	0.9766 ± 0.0042
TGGAAAAGCG	0.976 ± 0.012
TGAGGGCTTT	1.013 ± 0.0023
GGATCCGGGA	1.0104 ± 2.5e-05
AGGTTTAGAC	1.01 ± 0.021
TTTTTAGGG	0.983 ± 0.034
AGGATGTAGG	1.02 ± 0.035
TCTGGGGAGT	1.01 ± 0.043
CTTAAAGTTT	0.983 ± 0.041
CGCGGGACTT	2.01 ± 1.4
AGTTTTATCA	0.97 ± 0.015
CGTTTGTTCG	1.03 ± 0.071
AACGAAAGGG	1.03 ± 0.074
CGGGAAAATT	1.02 ± 0.025
GCACCGGGGC	0.971 ± 0.015
GTGTTATTTA	0.977 ± 0.046
AGGCGGTGGG	1.044 ± 0.0059
GGTGGCGTAC	1.018 ± 0.01
TGTATTTTGG	0.984 ± 0.029
ATGTGGTCTG	0.9777 ± 0.0014
ATTATTTTGC	0.9464 ± 0.0026
AGCGGTCCGG	1 ± 0.058
ACATGTAGGA	1 ± 0.032
AGACACATCC	1.11 ± 0.022
